Source: PMC8417012, “Characterization of Arabidopsis thaliana R2R3 S23 MYB Transcription Factors as Novel Targets of the Ubiquitin Proteasome-Pathway and Regulators of Salt Stress and Abscisic Acid Response” (Frontiers in Plant Science, 2021)

How the values were obtained:
Assay in all cases: pull-down; His:BPM proteins kept on Ni-NTA agarose beads, incubated with eluted GST-tagged proteins in 0.1 M Tris pH 7.5, 150 mM NaCl, 0.5% NP-40, PMSF, 2 h at 4°C, three washes; blots with anti-GST and anti-His
Conditions in all cases: both partners purified
His:BPM1 = target: T1, His:BPM1 (Arabidopsis thaliana, UniProt Q8L765 1-407)
T1 construct: BPM1, MATH-BTB/POZ protein, Arabidopsis thaliana; cloned into pET21b (NdeI/XhoI); pET21b usually adds a C-terminal His6 tag (surmised); also called His-tagged BPM1; source: E. coli, purified on Ni-NTA agarose beads (remained on the beads)
T1 sequence (looked up): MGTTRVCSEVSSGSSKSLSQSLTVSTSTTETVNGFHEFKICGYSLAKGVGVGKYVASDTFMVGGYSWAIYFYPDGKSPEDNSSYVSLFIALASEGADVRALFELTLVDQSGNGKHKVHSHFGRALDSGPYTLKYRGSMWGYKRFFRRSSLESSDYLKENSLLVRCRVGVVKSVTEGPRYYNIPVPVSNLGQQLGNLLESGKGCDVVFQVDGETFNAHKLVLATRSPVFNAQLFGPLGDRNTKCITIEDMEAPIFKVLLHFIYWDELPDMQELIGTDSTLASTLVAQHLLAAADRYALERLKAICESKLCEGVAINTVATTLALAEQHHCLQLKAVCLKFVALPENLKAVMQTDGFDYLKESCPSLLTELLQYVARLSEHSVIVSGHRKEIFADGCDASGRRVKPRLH

His:BPM3 = target: T2, His:BPM3 (Arabidopsis thaliana, UniProt O22286 1-408)
T2 construct: BPM3, MATH-BTB/POZ protein, Arabidopsis thaliana; cloned into pET21b (NdeI/XhoI); pET21b usually adds a C-terminal His6 tag (surmised); also called His-tagged BPM3; source: E. coli, purified on Ni-NTA agarose beads (remained on the beads)
T2 sequence (looked up): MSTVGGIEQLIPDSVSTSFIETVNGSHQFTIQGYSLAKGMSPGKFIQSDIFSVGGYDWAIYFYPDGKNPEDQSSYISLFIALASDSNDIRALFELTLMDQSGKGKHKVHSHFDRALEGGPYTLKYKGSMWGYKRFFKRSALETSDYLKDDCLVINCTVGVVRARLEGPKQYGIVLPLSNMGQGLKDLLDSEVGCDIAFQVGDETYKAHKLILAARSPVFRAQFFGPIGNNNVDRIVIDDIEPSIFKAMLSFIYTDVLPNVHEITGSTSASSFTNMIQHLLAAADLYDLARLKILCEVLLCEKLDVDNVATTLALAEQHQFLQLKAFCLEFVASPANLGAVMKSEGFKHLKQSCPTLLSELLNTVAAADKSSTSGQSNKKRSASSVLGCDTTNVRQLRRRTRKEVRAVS

His:BPM5 = target: T3, His:BPM5 (Arabidopsis thaliana, UniProt Q1EBV6 1-410)
T3 construct: BPM5, MATH-BTB/POZ protein, Arabidopsis thaliana; cloned into pET21b (NdeI/XhoI); pET21b usually adds a C-terminal His6 tag (surmised); also called His-tagged BPM5; source: E. coli, purified on Ni-NTA agarose beads (remained on the beads)
T3 sequence (looked up): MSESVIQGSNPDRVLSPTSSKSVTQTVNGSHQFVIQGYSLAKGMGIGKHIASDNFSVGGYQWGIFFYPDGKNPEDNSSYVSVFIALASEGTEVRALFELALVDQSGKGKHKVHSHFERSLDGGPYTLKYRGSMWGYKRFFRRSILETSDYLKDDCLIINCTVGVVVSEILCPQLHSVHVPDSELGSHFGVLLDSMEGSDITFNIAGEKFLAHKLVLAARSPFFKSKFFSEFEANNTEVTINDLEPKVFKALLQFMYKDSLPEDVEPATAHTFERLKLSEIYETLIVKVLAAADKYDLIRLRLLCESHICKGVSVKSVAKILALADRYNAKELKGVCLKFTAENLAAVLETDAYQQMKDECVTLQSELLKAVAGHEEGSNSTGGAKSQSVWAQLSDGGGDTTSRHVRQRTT

Measured: binding result

B1: GST:MYB1 (natural protein)
chain: not shown
notes: MYB1, Arabidopsis thaliana, At3g09230, 393 AA; cDNA; GST fusion ~69.7 kDa; Two GST constructs of MYB1 are described (pDEST15 by Gateway; pHB2-GST from the clone DKLAT3G09230); also called GST-tagged MYB1; source: E. coli, purified (glutathione agarose beads), eluted; not shown: GST, N-terminal, kept
binds: all assays above

B2: GST:MYB25 (natural protein)
chain: not shown
notes: MYB25, Arabidopsis thaliana, At2g39880, 367 AA; cDNA in pDEST15; GST fusion ~67.8 kDa; also called GST-tagged MYB25; source: E. coli, purified (glutathione agarose beads), eluted; not shown: GST, N-terminal, kept
binds: all assays above
